Where a chain is given by its changes, count along the chain named. Blank lines part the entries; values can stand above or below the binder they belong to.
Tests used:
human FcγRIIa type R = biological target: T1, human FcγRIIa type R (human, UniProt P12318 36-217); assay: SPR (Biacore), FcγR over captured antibody; amount bound relative to IL6R-BF648/IL6R-L x100
T1 construct: also called FcγRIIaR; FcγRIIa(R)
T1 chain: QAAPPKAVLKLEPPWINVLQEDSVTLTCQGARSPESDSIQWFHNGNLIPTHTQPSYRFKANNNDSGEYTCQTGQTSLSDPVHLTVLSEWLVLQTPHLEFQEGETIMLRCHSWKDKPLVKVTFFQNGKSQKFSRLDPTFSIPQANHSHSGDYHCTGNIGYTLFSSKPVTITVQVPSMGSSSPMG

human FcγRIIIa type V = biological target: T2, human FcγRIIIa type V (human, UniProt P08637 17-208, limits assumed); assay: as above
T2 construct: also called FcγRIIIaV; FcγRIIIa(V)
T2 sequence (P08637 other isoform, or with tags, fused parts or gaps limits assumed): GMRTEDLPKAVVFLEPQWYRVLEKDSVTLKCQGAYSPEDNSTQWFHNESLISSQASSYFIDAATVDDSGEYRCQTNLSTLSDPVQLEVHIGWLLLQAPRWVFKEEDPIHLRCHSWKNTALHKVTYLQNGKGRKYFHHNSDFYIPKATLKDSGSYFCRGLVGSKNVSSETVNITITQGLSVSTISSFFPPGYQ

human FcγRIa = biological target: T3, human FcγRIa (human, UniProt P12314 16-292, limits assumed); assay: as above
T3 construct: also called CD64
T3 sequence (P12314 16-292 limits assumed): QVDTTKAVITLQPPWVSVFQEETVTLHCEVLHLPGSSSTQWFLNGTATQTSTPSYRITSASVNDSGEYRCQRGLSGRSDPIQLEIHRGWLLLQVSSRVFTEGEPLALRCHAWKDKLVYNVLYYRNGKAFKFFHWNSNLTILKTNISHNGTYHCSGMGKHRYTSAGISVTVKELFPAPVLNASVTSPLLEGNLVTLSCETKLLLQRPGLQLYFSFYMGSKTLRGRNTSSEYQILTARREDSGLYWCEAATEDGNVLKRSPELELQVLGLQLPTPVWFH

human FcγRIIb [1] = biological target: T4, human FcγRIIb (human, UniProt P31994 43-217); assay: as above
T4 construct: also called FcγIIB
T4 sequence: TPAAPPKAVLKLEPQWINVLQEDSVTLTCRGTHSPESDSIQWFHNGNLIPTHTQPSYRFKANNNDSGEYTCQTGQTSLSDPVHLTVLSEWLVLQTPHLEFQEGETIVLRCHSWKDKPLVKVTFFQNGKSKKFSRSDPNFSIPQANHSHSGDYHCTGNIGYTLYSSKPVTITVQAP

human FcγRIIa type H = biological target: T5, human FcγRIIa type H (human, UniProt P12318 36-217); assay: as above
T5 construct: Whole entry named for FcγRIIa allotype H131 (AAH20823.1); also called FcγRIIaH; FcγRIIa(H)
T5 sequence: T1 chain with R133H

human FcγRIIb [2] = biological target: T6, human FcγRIIb (human, UniProt P31994 43-217); assay: SPR (Biacore); KD of parent IL6R-B3/IL6R-L for FcγRIIb divided by KD of the variant for FcγRIIb
T6 construct: also called FcγIIB
T6 sequence: T4 sequence
Description: Furthermore, KD(IIaR)/KD(IIb) and KD(IIaH)/KD(IIb) in the table respectively represent the value obtained by dividing the KD value of each variant for FcγRIIaR by the KD value of each variant for FcγRIIb, and the value obtained by dividing the KD value of each variant for FcγRIIaH by the KD value of each variant for FcγRIIb.

relative binding (human FcγRIIa type R): 147 relative value (IL6R-BF648/IL6R-L = 100) | relative binding (human FcγRIIIa type V): 129 relative value (IL6R-BF648/IL6R-L = 100) | relative binding (human FcγRIa): 123 relative value (IL6R-BF648/IL6R-L = 100) | relative binding (human FcγRIIb [1]): 118 relative value (IL6R-BF648/IL6R-L = 100)
B1: IL6R-BP107/IL6R-L (antibody, human IgG1)
heavy: QVQLQESGPGLVKPSETLSLTCAVSGHSISHDHAWSWVRQPPGEGLEWIGFISYSGITNYNPSLQGRVTISRDNSKNTLYLQMNSLRAEDTAVYYCARSLARTTAMDYWGEGTLVTVSSASTKGPSVFPLAPSSKSTSGGTAALGCLVKDYFPEPVTVSWNSGALTSGVHTFPAVLQSSGLYSLSSVVTVPSSSLGTQTYICNVNHKPSNTKVDKKVEPKSCDKTHTCPPCPAPELLGGDSVFLFPPKPKDTLMISRTPEVTCVVVDVSEEDPEVKFNWYVDGVEVHNAKTKPREEQYNSTYRVVSVLTVLHQDWLNGKEYKCKVSNKALPAPIEKTISKAKGQPREPQVYTLPPSRDELTKNQVSLTCLVKGFYPSDIAVEWESNGQPENNYKTTPPVLDSDGSFFLYSKLTVDKSRWQQGNVFSCSVMHEALHNHYTQESLSLSP
light: DIQMTQSPSSLSASVGDRVTITCRASQDISSYLNWYQQKPGKAPKLLIYYTSRLHSGVPSRFSGSGSGTDFTFTISSLQPEDIATYYCQQGNTLPYTFGQGTKVEIK
notes: copies: 2 + 2

relative binding (human FcγRIIa type R): 132 relative value (IL6R-BF648/IL6R-L = 100) | relative binding (human FcγRIIIa type V): 144 relative value (IL6R-BF648/IL6R-L = 100) | relative binding (human FcγRIa): 101 relative value (IL6R-BF648/IL6R-L = 100) | relative binding (human FcγRIIa type H): 128 relative value (IL6R-BF648/IL6R-L = 100) | relative binding (human FcγRIIb [1]): 104 relative value (IL6R-BF648/IL6R-L = 100)
B2: IL6R-BP118/IL6R-L (antibody, human IgG1)
heavy: B1 heavy with E270H, K328S
light: B1 light
notes: copies: 2 + 2

relative binding (human FcγRIIa type R): 165 relative value (IL6R-BF648/IL6R-L = 100) | relative binding (human FcγRIIIa type V): 86 relative value (IL6R-BF648/IL6R-L = 100) | relative binding (human FcγRIa): 104 relative value (IL6R-BF648/IL6R-L = 100) | relative binding (human FcγRIIa type H): 66 relative value (IL6R-BF648/IL6R-L = 100) | relative binding (human FcγRIIb [1]): 106 relative value (IL6R-BF648/IL6R-L = 100)
B3: IL6R-BP102/IL6R-L (antibody, human IgG1)
heavy: B1 heavy with S269Q, E270H
light: B1 light
notes: copies: 2 + 2

relative binding (human FcγRIIa type R): 126 relative value (IL6R-BF648/IL6R-L = 100) | relative binding (human FcγRIIIa type V): 114 relative value (IL6R-BF648/IL6R-L = 100) | relative binding (human FcγRIa): 110 relative value (IL6R-BF648/IL6R-L = 100) | relative binding (human FcγRIIa type H): 110 relative value (IL6R-BF648/IL6R-L = 100) | relative binding (human FcγRIIb [1]): 108 relative value (IL6R-BF648/IL6R-L = 100)
B4: IL6R-BP116/IL6R-L (antibody, human IgG1)
heavy: B1 heavy with E270H, K328T
light: B1 light
notes: copies: 2 + 2

relative binding (human FcγRIIa type R): 103 relative value (IL6R-BF648/IL6R-L = 100) | relative binding (human FcγRIIIa type V): 147 relative value (IL6R-BF648/IL6R-L = 100) | relative binding (human FcγRIa): 118 relative value (IL6R-BF648/IL6R-L = 100) | relative binding (human FcγRIIa type H): 147 relative value (IL6R-BF648/IL6R-L = 100)
B5: IL6R-2B002/IL6R-L (antibody, human IgG1)
heavy: B1 heavy with E235D, E270H
light: B1 light
notes: copies: 2 + 2

relative binding (human FcγRIIa type R): 101 relative value (IL6R-BF648/IL6R-L = 100) | relative binding (human FcγRIIIa type V): 91 relative value (IL6R-BF648/IL6R-L = 100) | relative binding (human FcγRIIa type H): 89 relative value (IL6R-BF648/IL6R-L = 100)
B6: IL6R-BP078/IL6R-L (antibody, human IgG1)
heavy: B1 heavy with E270H, A332M
light: B1 light
notes: copies: 2 + 2

relative binding (human FcγRIIa type R): 166 relative value (IL6R-BF648/IL6R-L = 100) | relative binding (human FcγRIa): 124 relative value (IL6R-BF648/IL6R-L = 100) | relative binding (human FcγRIIa type H): 96 relative value (IL6R-BF648/IL6R-L = 100) | relative binding (human FcγRIIb [1]): 118 relative value (IL6R-BF648/IL6R-L = 100)
B7: IL6R-BP117/IL6R-L (antibody, human IgG1)
heavy: B1 heavy with E270H, K328D
light: B1 light
notes: copies: 2 + 2

relative binding (human FcγRIIa type R): 117 relative value (IL6R-BF648/IL6R-L = 100) | relative binding (human FcγRIIIa type V): 122 relative value (IL6R-BF648/IL6R-L = 100) | relative binding (human FcγRIa): 116 relative value (IL6R-BF648/IL6R-L = 100) | relative binding (human FcγRIIa type H): 115 relative value (IL6R-BF648/IL6R-L = 100) | relative binding (human FcγRIIb [1]): 113 relative value (IL6R-BF648/IL6R-L = 100)
B8: IL6R-2B171/IL6R-L (antibody, human IgG1)
heavy: B1 heavy with E270H, V325L
light: B1 light
notes: copies: 2 + 2

KD(IIb) of the parent polypeptide/KD(IIb) of the altered polypeptide (human FcγRIIb [2]): 25.5
B9: IL6R-BP193/IL6R-L (antibody, human IgG1)
heavy: B1 heavy with E235D, E270D, P273G, A332K
light: B1 light
notes: Anti-human IL-6 receptor human IgG1 variant; copies: 2 + 2

relative binding (human FcγRIIa type R): 159 relative value (IL6R-BF648/IL6R-L = 100) | relative binding (human FcγRIa): 117 relative value (IL6R-BF648/IL6R-L = 100) | relative binding (human FcγRIIa type H): 103 relative value (IL6R-BF648/IL6R-L = 100) | relative binding (human FcγRIIb [1]): 119 relative value (IL6R-BF648/IL6R-L = 100)
B10: IL6R-BP136/IL6R-L (antibody, human IgG1)
heavy: B1 heavy with E270H, K328A
light: B1 light
notes: copies: 2 + 2

relative binding (human FcγRIIa type R): 197 relative value (IL6R-BF648/IL6R-L = 100) | relative binding (human FcγRIIIa type V): 138 relative value (IL6R-BF648/IL6R-L = 100) | relative binding (human FcγRIa): 121 relative value (IL6R-BF648/IL6R-L = 100) | relative binding (human FcγRIIa type H): 128 relative value (IL6R-BF648/IL6R-L = 100) | relative binding (human FcγRIIb [1]): 110 relative value (IL6R-BF648/IL6R-L = 100)
B11: IL6R-BP100/IL6R-L (antibody, human IgG1)
heavy: B1 heavy with S269A, E270H
light: B1 light
notes: copies: 2 + 2

relative binding (human FcγRIIa type R): 163 relative value (IL6R-BF648/IL6R-L = 100) | relative binding (human FcγRIIIa type V): 77 relative value (IL6R-BF648/IL6R-L = 100) | relative binding (human FcγRIa): 56 relative value (IL6R-BF648/IL6R-L = 100) | relative binding (human FcγRIIa type H): 69 relative value (IL6R-BF648/IL6R-L = 100) | relative binding (human FcγRIIb [1]): 107 relative value (IL6R-BF648/IL6R-L = 100)
B12: IL6R-BP103/IL6R-L (antibody, human IgG1)
heavy: B1 heavy with S269V, E270H
light: B1 light
notes: copies: 2 + 2

— patent publication US20140105889A1 (published 2014)
